Values quoted from earlier work, collected in patent publication US20180221339A1, “COMPOSITIONS AND METHODS FOR TREATING AND DIAGNOSING OCULAR DISORDERS” (TRANSLATUM MEDICUS, INC., priority 2015, published 2018).

Target: T1, complement factor D (CFD) (Homo sapiens, UniProt P00746)
T1 construct: host or cells: patients (endogenous protein, in vivo)
Settings: phase II study, 18 month period; most robust in patients with complement factor H and I polymorphisms

T1 sequence (P00746 26-253): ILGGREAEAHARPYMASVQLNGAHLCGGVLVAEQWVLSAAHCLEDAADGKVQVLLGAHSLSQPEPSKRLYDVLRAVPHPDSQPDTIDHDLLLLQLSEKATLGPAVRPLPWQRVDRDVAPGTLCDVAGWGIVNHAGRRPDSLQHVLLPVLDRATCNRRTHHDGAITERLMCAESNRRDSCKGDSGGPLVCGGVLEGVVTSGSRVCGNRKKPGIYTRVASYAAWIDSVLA

Lampilizumab: complement factor D (CFD) inhibitor; anti-factor D antibody (Genentech)
growth (expansion) of geographic atrophy: can slow the growth, i.e. expansion, of geographic atrophy
